Experimental data: the supplement of paper PMC9170038

Tests used:
MS2 coat protein [1] = experiment: apparent KD of MS2 coat protein, switch OFF state (with FMN for OFF switches, without FMN for ON switches); designed switch direction (-1 OFF switch, 1 ON switch): 1; higher = weaker reporter binding; conditions: FMN input: 0 or 200 uM; Eterna round: R93 (includes R88 designs)
Procedure, shortened: (§1)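 Illumina sequencing clusters served as templates for on-chip transcription of the designed RNA switches. SNAP-549-labelled MS2 coat protein was then titrated in twofold steps from 0.7 or 1.5 nM to 3 µM, allowing 0.8–1.5 h per step at first and 10–20 min per step later. The buffer held 100 mM Tris-HCl pH 7.5, 80 mM KCl and 4 mM MgCl2, without or with constant ligand. Apparent KD is the median per design of normalised cluster binding-curve fits.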

MS2 coat protein [2] = experiment: apparent KD of MS2 coat protein, switch ON state; designed switch direction (-1 OFF switch, 1 ON switch): 1; higher = weaker reporter binding; conditions: FMN input: 0 or 200 uM; Eterna round: R93 (includes R88 designs)
Procedure, shortened: as §1

Sequence | apparent KD of MS2 coat protein (MS2 coat protein [1]) [nM] | apparent KD of MS2 coat protein (MS2 coat protein [2]) [nM]
ACAUGCUGCCGGCAGGAUAUCGCUUGGCGGACAUGAGGAUCACCCAUGUGAGAAAGUCGCGCGCGCGAGAAGGGCCAUGGUAUCAG [SameState2_Neo] | 61.1 | 89.3
GAGGACGUAGGAUAGGAUAUGUGAAUAAUUACAUGAGGAUCACCCAUGUCCAUUUAUAUGGGAACAUAGAAGGGUUUUCGUUAUC [SameState2 Malc#40] | 387 | 646
AGAAAACAUGAGGAUCACCCAUGUAGGAAUAUGGGAGGAUAUACAAAGACGAAAGUCAGAGUAGAAGGCCUAAGAA [salish99-SS1-087] | 81.8 | 24.1
AUAAAAGAAGCGAAGGAUAUCCAAAAUCCAACAUGAGGAUCACCCAUGUAAAGAAAGAAAAAAUGGGAGAAGGUCGCAAAGAAUA [73%, More Fisker Same State 2, D3, 11] | 31.3 | 13.5
GAAAAACAUGAGGAUCACCCAUGUGAGAAUAUGGGAGGAUAUUCAAAGACGAAAGUCAAAGAAGAAGGCCUAAAAG [Mat - Same State 1 - Eli mod - 37] | 276 | 31.2
AAAAAACAUGAGGAUCACCCAUGUGAGAACAUGGGAGGAUAUACAAGGAUGAGAGUCAAGGUAGAAGGCCUAAGAA [Garnet 70] | 48.5 | 76.1
AAAAAACAUGAGGAUCACCCAUGUAAAAAAAUCGCAGGAUAUAAGGUCGCGAAAGCGACCUUAGAAGGGCGAUCCU [Louisiana 1 - Jieux - Same State 1] | 75.8 | 46.3
AGGAAACAUGAGGAUCACCCAUGUAAAAAAAUGGGAGGAUAUACUAGAAGAAACAAAAUAGUAGAAGGCCUAAAAA [75%, Ex sub1, 27] | 74.9 | 18.9
GAGAAACAUGAGGAUCACCCAUGUAGAGAUAUGGGAGGAUAUACAGAGACGAGAGUCAAAGUAGAAGGCCUAGAAG [77%, Mat - Mod of Eli - With 5 more G's] | 46.4 | 25.5
AAAAUACAUGAGGAUCACCCAUGUGAAAAUAUGGGAGGAUAUACAAAAACGAAAGUAAAAGUAGAAGGCCUAAAAA [SS! 1 MT 1] | 185 | 37.8
AAAAAACAUGAGGAUCACCCAUGUAAAAAAAUGGGAGGAUAUACAAAAAAAAAAAAAAAAGUAGAAGGCCUGAAAA [same state 10] | 533 | 62.3
AAAAGACAUGAGGAUCACCCAUGUAAAAACUUGGGAGGAUAUGCUUGGAAAACAUGCUAUGCAGAAGGCUCUAGUC [SS1 - 14] | 123 | 78.3
AGGAAACAUGAGGAUCACCCAUGUAAAAAUAUAGGAGGAUAUGCGAAAAGAAACAAAGAAGCAGAAGGCUUAAAAA [75%, Ex sub1, 22] | 20.8 | 13.1
AAAAAACAUGAGGAUCACCCAUGUAAAAAAAUGGGAGGAUAUACAAAAACGAAAGUCAAAGUAGAAGGCCUGAAAA [same state 5] | 172 | 19.3
GAGAAGAAGAGAGAGGAUAUCCAAAGGAAAACAUGAGGAUCACCCAUGUAAAAGGUAGGAAAUUGGGAGAAGGCUCAAAGGAGGG [salish99-ss2-031] | 29.5 | 23.2
CAUCACGCGCCUAAGGAUAUGUCUCACAAGACAUGAGGAUCACCCAUGUAGAAUAAAUAAAUGAUGCAGAAGGUGGAGCGCAUGC [Gerixeza] | 517 | 134
AAAAAACAUGAGGAUCACCCAUGUGAAAAUAUGGGAGGAUAUACAAAGACGAGAGUCAAAGUAGAAGGCCUAAAAA [Mat - Same State 1 - Eli mod - D87] | 139 | 26.6
AAUGAACAUGAGGAUCACCCAUGUUCUAAUAGUUGAGGAUAUGUGGGUGAAAAUAGCACGGCAGAAGGCGAGUGUA [SameState1 Malc#19] | 80.7 | 101
AAAAAUAAAACACAGGAUAUCCAAAAGAAAACAUGAGGAUCACCCAUGUAAAGAAAAUAAAAAUGGGAGAAGGGUGAAAAUAAGA [Mat - Same State 2 - JL mod - D21] | 52.6 | 29.9

Sequence | apparent KD of MS2 coat protein (MS2 coat protein [1]) [nM] | apparent KD of MS2 coat protein (MS2 coat protein [2]) [nM]
AAAAAAAAAUCUCAGGAUAUAGAUUAUAGAACAUGAGGAUCACCCAUGUAGUGAAAGAAGAAAAACUAGAAGGGAGGAAAAAAAAA [Same State 2 #2] | 70.8 | 48.2
AAAAAACAUGAGGAUCACCCAUGUAGAAACAUGGGAGGAUAUACGAAGACGAAAGUCAAAGUAGAAGGCCUAAGAA [Garnet 88] | 224 | 182
AAAUAAAUGACUGAGGAUAUAUCGAAGAAGACAUGAGGAUCACCCAUGUGAUAAUAAAAAGGGUGGUAGAAGGUAGUCAACAAAC [Mod 8 of Pariah 4 by Hyphema in Round 1] | 122 | 133
AGAAAUAAAUGAGAGGAUAUCCUAAAGAAAACAUGAGGAUCACCCAUGUAAAAGAAAAUAAAAUGGGAGAAGGCUCAUAAUAAAG [Starry Same State 2 (jandersonlee round 1 mod)] | 35.5 | 20.8
AGCACGUGAUUGGAGGAUAUGCAGUAAGCAACAUGAGGAUCACCCAUGUCUGACCCUGAAAACCAGCAGAAGGCCGAUACAACCA [SS2-1.7] | 13 | 10.2
AGGAAACAUGAGGAUCACCCAUGUAUAAAAAUGGAAGGAUAUACUAAGACGAAAGUCAUAGUAGAAGGUUCAAAAA [76%, Meechl, 9] | 21.1 | 13.1
AUAAAUAAAAGAGAGGAUAUCCAAAAUAAAACAUGAGGAUCACCCAUGUAAAAUAAAAUAAAAUGGGAGAAGGCUCAAAAUAAAU [SS2 M 2] | 72.1 | 21.6
AACAAUCUAUCUGAGGAUAUCAUGUGAAAGACAUGAGGAUCACCCAUGUCGCAGGAAACUGCUCAUGAGAAGGCAGAUAGAUUGA [SS2: 1127] | 12.5 | 15.6
AUAAAACAUGAGGAUCACCCAUGUAGACACGAUGGAGGAUAUACUAGAUCGAAAGAUCUAGUAGAAGGCCGACGUA [Mat - Same State 1 - JL mod - D95] | 22.6 | 18.4
AACAAUCUAUCUGAGGAUAUAUGUCAAAAGACAUGAGGAUCACCCAUGUAAAAACAUGAAAAAACAUAGAAGGCAGAUAGAUUGA [SS2: 1134] | 120 | 41.5
AUAAAACAUGAGGAUCACCCAUGUAGAAAUAUGGGAGGAUAUACUAGAUCGAAAGAUCUAGUAGAAGGCCUUUAUG [JL Mod of Eli 5] | 49.3 | 45.4
AAAAAAAAAGUGCAGGAUAUCCUCAUGGCUACAUGAGGAUCACCCAUGUGAAGAAAAGCACAUGAGGAGAAGGGCACAAAAAAAAA [Balance beam] | 23.1 | 12.3
AAGAAACAUGAGGAUCACCCAUGUAAUAAUAUGGGAGGAUAUACAAGGACAAUAGUCAAGGUAGAAGGCCUAAGAA [Mat - Same State 1 - Meechl mod - D142] | 249 | 26.7
AGGAGACAUGAGGAUCACCCAUGUGAGAAGAGGCGAGGAUAUCGAAAAAAAAAAAGAAAACGAGAAGGCGCGAGAA [salish99-SS1-014] | 59.9 | 244
GACAAACAUGAGGAUCACCCAUGUAGAAAUAUGGGAGGAUAUACAAAGACGAAAGUCAAAGUAGAAGGCCUAAAAG [77%, Mat - Mod of Eli - With 1 more C's] | 79 | 21.7
AGAAAACAUGAGGAUCACCCAUGUGACAAUAUGGGAGGAUAUACAAAGACGAAAGUCGAAGUAGAAGGCCUAAAGA [Garnet 52] | 69.7 | 26.1
GAAAAACAUGAGGAUCACCCAUGUGAGAAUAUGGGAGGAUAUACAAGGACGAAAGUCAAGGUAGAAGGCCUAAAAG [Mat - Same State 1 - Eli mod - 28] | 155 | 34.3
ACGGUCAAGUGUGAGGAUAUCCAGGCUCCCACAUGAGGAUCACCCAUGUCUUAAAGGGCGUAAAGGGAGAAGGUACGAACGCCAC [Vesolees] | 45.3 | 33.2
AGGAAACAUGAGGAUCACCCAUGUAAGAUAUAUACAGGAUAUGCGAAAAGAAACAAAGAAGCAGAAGGGUAAAAAA [75%, Ex sub1, 13] | 25.5 | 18
